US20070280881A1

Target: TAG-72 (tumor associated antigen TAG-72) (human)
Assay: binding data (text calls it ED50), method not stated; ELISA on TAG-72 coated plates per Example 7

| Substance | Kd [nM] |
| --- | --- |
| Humanized CC49 IgG (antibody) | 2.5 |
| ddCC49, no spacer (huCC49.ΔCH2, unfractionated mixture of 120 kDa and 240 kDa forms) (antibody) | 0.8 |
| CC49.ΔCH2 [gly/ser] (domain deleted CC49 with Gly/Ser spacer) (antibody) | 1.8 |
